The results in this text go back to paper doi:10.1101/2022.03.04.482347.

Experiment [1] deals with mouse PROM1 SV8 lacking exon 19a, Flag-tagged (mouse). Put plainly: native gel or EMSA.
Experiment [2] addresses mouse PROM1, photoreceptor-specific isoform SV8 (contains exon 19a), Flag-tagged (mouse). Put plainly: native gel or EMSA. Background: In EMSA bound probe runs differently from free probe, usually more slowly.

Where “and” joins values, the source holds several entries; their conditions need not be identical. Identical values can stand only once.

Turning to “mouse PROM1 SV8 lacking exon 19a, Flag-tagged (natural protein)”, the stoichiometry N – broadly, a count of units in the complex or per binding partner – in experiment [1] is 2 and 4.

“mouse PROM1, photoreceptor-specific isoform SV8 (contains exon 19a), Flag-tagged (natural protein)”: the stoichiometry N in experiment [2] is 2 and 4.
